1 molecule from patent WO2019198731A1 can be followed below.

This assay has as its target three HER2 antigens (HER2 fragment proteins used for panning). The experiment in a line: monoclonal phage ELISA on immobilised HER2 antigens. A general note: ELISA stands for enzyme-linked immunosorbent assay.

B1: H44 clone (VHH displayed on monoclonal M13 phage) (VHH)
VHH: QVQLVESGGTLVQAGGSLRLSCAASGRTFSSYAMGWFRQAPGKEREFVAAIRLKTDYSDSVKGRFTISRDNAKNTVYLQMNSLKPEDTAVYYCAAWLRRGYGASWYLTGADPRYWGRGTRVTVSS
As to B1, the abs. at 450 nm was > 1.5.
